{"source": "paper PMC11236707", "about": "“dsRNA formation leads to preferential nuclear export and gene expression”", "key": {"[1]": {"molecular_target": "T1, Mex67 (in Mex67-Mtr2 heterodimer);Mtr2 (in Mex67-Mtr2 heterodimer) (Saccharomyces cerevisiae;Saccharomyces …, UniProt Q99257;P34232 1-599;1-184, |)", "T1 sequence 1": "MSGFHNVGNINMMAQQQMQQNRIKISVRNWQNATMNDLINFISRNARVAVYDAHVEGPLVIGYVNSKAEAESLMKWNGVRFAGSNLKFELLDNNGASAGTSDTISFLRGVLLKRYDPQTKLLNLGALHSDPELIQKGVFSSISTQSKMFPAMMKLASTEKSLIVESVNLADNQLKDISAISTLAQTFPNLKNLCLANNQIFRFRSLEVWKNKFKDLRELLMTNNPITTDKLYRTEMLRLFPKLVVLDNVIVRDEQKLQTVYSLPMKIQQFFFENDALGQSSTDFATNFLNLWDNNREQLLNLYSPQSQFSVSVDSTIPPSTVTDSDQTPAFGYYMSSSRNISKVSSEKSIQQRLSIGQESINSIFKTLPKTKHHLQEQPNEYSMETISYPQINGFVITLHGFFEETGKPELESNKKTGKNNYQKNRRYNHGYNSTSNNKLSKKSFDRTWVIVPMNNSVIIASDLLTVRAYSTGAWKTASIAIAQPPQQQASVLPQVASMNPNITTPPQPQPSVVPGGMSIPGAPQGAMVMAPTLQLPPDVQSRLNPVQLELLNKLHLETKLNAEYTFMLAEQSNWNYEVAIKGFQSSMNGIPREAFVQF", "T1 sequence 2": "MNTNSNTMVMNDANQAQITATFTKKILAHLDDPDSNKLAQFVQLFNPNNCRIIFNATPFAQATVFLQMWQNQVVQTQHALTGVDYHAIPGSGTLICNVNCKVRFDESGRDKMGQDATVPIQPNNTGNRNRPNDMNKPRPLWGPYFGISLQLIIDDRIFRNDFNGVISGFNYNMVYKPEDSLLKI", "test": "EMSA; 4 uM RNA; full upshift at 2-fold, saturated at 5-fold molar excess; 30 mM HEPES-KOH, 160 mM KCl, pH 7.6, Ribolock, 30 C 15 min; 4 uM RNA with 4-44 uM Mex67-Mtr2 (competition 3 uM RNA, 12 uM protein); 0.5% agarose, 1x TAE pH 9.5, 4 C", "settings": "protein: recombinant;recombinant; HisFF purification;; copies: 1;1; label: FAM; single strand"}, "[2]": {"molecular_target": "T1, Mex67 (in Mex67-Mtr2 heterodimer);Mtr2 …", "test": "EMSA; 4 uM RNA; full upshift at 3-fold, saturated at 10-fold molar excess; 30 mM HEPES-KOH, 160 mM KCl, pH 7.6, Ribolock, 30 C 15 min; 4 uM RNA with 4-44 uM Mex67-Mtr2 (competition 3 uM RNA, 12 uM protein); 0.5% agarose, 1x TAE pH 9.5, 4 C", "settings": "protein: recombinant;recombinant; HisFF purification;; copies: 1;1; label: FAM on one strand; blunt"}, "[3]": {"molecular_target": "T1, Mex67 (in Mex67-Mtr2 heterodimer);Mtr2 …", "test": "competition; N4 added to complex preformed on N1; labels switched, same effect; 30 mM HEPES-KOH, 160 mM KCl, pH 7.6, Ribolock, 30 C 15 min; 4 uM RNA with 4-44 uM Mex67-Mtr2 (competition 3 uM RNA, 12 uM protein); 0.5% agarose, 1x TAE pH 9.5, 4 C", "settings": "protein: recombinant;recombinant; HisFF purification;; copies: 1;1; label: Cy5 on one strand; blunt"}}}
{"binder": "UUUUUUUUAUUGCCUGGUUGCCUGGUUAUUUCUAUU (ssRNA)", "note": "[36-nt ssRNA, FAM]", "values": [{"measurement": "binding result", "setting": "[1]", "value": "binds"}]}
{"binder": "36-bp dsRNA, FAM (dsRNA) RNA 1: UUUUUUUUAUUGCCUGGUUGCCUGGUUAUUUCUAUU RNA 2: AAUAGAAAUAACCAGGCAACCAGGCAAUAAAAAAAA", "values": [{"measurement": "binding result", "setting": "[2]", "value": "binds"}]}
{"binder": "36-bp dsRNA, Cy5 (dsRNA) RNA 1: UUAUAUGUCUUGUUCUCUUGUAUCUGUUCUUGUUGU RNA 2: ACAACAAGAACAGAUACAAGAGAACAAGACAUAUAA", "values": [{"measurement": "binding result", "setting": "[3]", "value": "binds"}]}
